2 substances from article PMC2723105, “DNA binding by Corynebacterium glutamicum TetR-type transcription regulator AmtR” can be followed below.

Assay in all cases: EMSA
Holding throughout (settings): EMSA: DIG gel shift kit (Roche) conditions, 0.04 ng DNA, native 6% PAGE in 0.5x TBE; SPR: HBS-EP running buffer, 25 °C, BIAcoreX, nonspecific 30-mer DNA in the …

In series [1] the target is T1, AmtR-MBP T42A T42A (Corynebacterium glutamicum ATCC13032) (UniProt H7C699).
T1 sequence: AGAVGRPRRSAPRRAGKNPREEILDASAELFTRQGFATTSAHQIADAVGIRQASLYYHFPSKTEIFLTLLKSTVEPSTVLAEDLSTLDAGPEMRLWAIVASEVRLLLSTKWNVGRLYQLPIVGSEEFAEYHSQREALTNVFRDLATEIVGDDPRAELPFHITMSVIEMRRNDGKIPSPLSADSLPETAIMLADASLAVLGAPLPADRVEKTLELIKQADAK

The target in series [2] is T2, AmtR-MBP Y57A Y57A (Corynebacterium glutamicum ATCC13032) (UniProt H7C699).
T2 sequence: T1 sequence with A41T, Y56A

Series [3] has as its target T3, AmtR-MBP Y58A Y58A (Corynebacterium glutamicum ATCC13032) (UniProt H7C699).
T3 sequence: T1 sequence with A41T, Y57A

The target of series [4] is T4, AmtR-MBP S55A S55A (Corynebacterium glutamicum ATCC13032) (UniProt H7C699).
T4 sequence: T1 sequence with A41T, S54A

Series [5] has as its system AmtR-MBP T33A (Corynebacterium glutamicum ATCC13032).
Series [6] deals with AmtR-MBP E30A (Corynebacterium glutamicum ATCC13032).
Series [7] concerns AmtR-MBP L71A (Corynebacterium glutamicum ATCC13032).

Positions count from the first letter of the chain named.

Take “GCTGGGCTAGAAACCCGATAAGCGAGAACCACCTGTCGGATGTTGTCTGGCAGGTGGTTTTCTTTTGCCTGGGTACCACCAAAAAGCAGCTGTGATGCACTTAACAATTCATTAAATTACCTGTTAAACTATAGAAAATATCCAAAACCCTCCAAAACCTATTCTATAGATCTATTGAAATTAGTTTCTGTAGGTCTATAGTTAGAGCTGGTTCAAGGGGTGTCAATCCCAAAAGGCACTCCTTGAACTCATGAAAAAGCTTGACAAAACTTCAACGTCAAAGGAGGTCATCCACGC (double strand) [amtB promoter PCR fragment]”: the values for the binding entry in series [1], in series [2] and in series [3] were “binds”, “binds more weakly” and “binds more weakly”, respectively. The Kd in series [4] amounted to 71 µM.

In the case of amtB promoter PCR fragment, the equilibrium dissociation constant (Kd) in series [5] was 2.2 µM; in series [6], 10 µM; in series [4], 71 µM; in series [7], 20 µM.
